This note sets out measurements from publication PMC9481871, “Anti-TGF-β1 aptamer enhances therapeutic effect of tyrosine kinase inhibitor, gefitinib, on non-small cell lung cancer in xenograft model”.

What all share (test): SPR; 500 nM protein; aptamer immobilized; SPR (Biacore): 145 mM NaCl, 5.4 mM KCl, 0.8 mM MgCl2, 1.8 mM CaCl2, 20 mM Tris-HCl pH 7.6, 0.05% Tween 20; temperature not given
Settings in all cases: protein: recombinant; chain copies: 2

One series addresses human TGF-β1 (active) (Homo sapiens, UniProt P01137 279-390).
The target in the next series is T1, human TGF-β3 (Homo sapiens, UniProt P10600 301-412).
T1 sequence: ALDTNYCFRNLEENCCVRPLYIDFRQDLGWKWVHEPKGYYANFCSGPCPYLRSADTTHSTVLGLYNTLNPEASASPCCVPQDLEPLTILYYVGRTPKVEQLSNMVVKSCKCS

A further series deals with mouse TGF-β1 (active) (Mus musculus, UniProt P04202 279-390).
For another series, the target named is T2, human TGF-β2 (Homo sapiens, UniProt P61812 303-414).
T2 sequence: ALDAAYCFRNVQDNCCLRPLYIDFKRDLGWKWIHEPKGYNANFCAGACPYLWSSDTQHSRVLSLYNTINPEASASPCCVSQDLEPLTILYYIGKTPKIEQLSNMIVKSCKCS

mouse TGF-β1 (active), sequence (P04202 279-390): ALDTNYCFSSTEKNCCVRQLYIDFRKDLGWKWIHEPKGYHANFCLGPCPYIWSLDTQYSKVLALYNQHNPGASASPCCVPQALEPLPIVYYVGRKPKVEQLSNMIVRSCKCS
human TGF-β1 (active), sequence (P01137 279-390): as the sequence (P04202 279-390) above, with S75A counted along it

B1: APT-β1 (structured_RNA)
RNA: GGCAUAAGGGAGGGGAGACUUGUGGAGGGCAAG
modifications: 2'-fluoro pyrimidines (SELEX with 2'-F-CTP and 2'-F-UTP); parent of APT-β1-OMe without 2'-OMe
Consider B1, for which the binding result is “binds” in the series with human TGF-β1 (active), “no binding” with human TGF-β3, “binds” in the series with mouse TGF-β1 (active) and “no binding” with human TGF-β2.
